# According to US20230002480A1:
# Legend:
# Assay in all cases: cell-based or functional assay
# [1] = biological target: HIV-1 Env of pseudovirus C2101.c01 (HIV-1)
# [2] = biological target: HIV-1 Env of pseudovirus 3301.v1.c24 (HIV-1)
# [3] = biological target: HIV-1 Env of pseudovirus CNE8 (HIV-1)
# [4] = biological target: HIV-1 Env of pseudovirus 620345.c01 (HIV-1)
# [5] = biological target: HIV-1 Env of pseudovirus X2088_c9 (HIV-1)
# [6] = biological target: HIV-1 Env of pseudovirus CNE5 (HIV-1)
# [7] = biological target: HIV-1 Env of pseudovirus 6041.v3.c23 (HIV-1)
# [8] = biological target: HIV-1 Env of pseudovirus BJOX028000.10.3 (HIV-1)
# [9] = biological target: HIV-1 Env of pseudovirus P1981_C5_3 (HIV-1)
# [10] = biological target: HIV-1 Env of pseudovirus 928-28 (HIV-1)
# [11] = biological target: HIV-1 Env of pseudovirus A07412M1.vrc12 (HIV-1)
# [12] = biological target: HIV-1 Env of pseudovirus 231966.c02 (HIV-1)
# [13] = biological target: HIV-1 Env of pseudovirus 263-8 (HIV-1)
# [14] = biological target: HIV-1 Env of pseudovirus 211-9 (HIV-1)
substance,measurement,setting,value
N49P7.2 (antibody),IC50,[1],0.162 µg/mL
same,IC80,[1],0.727 µg/mL
same,MPI,[1],100
same,IC50,[2],0.05 µg/mL
same,IC80,[2],0.137 µg/mL
same,MPI,[2],100
same,IC50,[3],0.073 µg/mL
same,IC80,[3],0.24 µg/mL
same,MPI,[3],100
same,IC50,[4],> 50 µg/mL
same,IC80,[4],> 50 µg/mL
same,MPI,[4],0
same,IC50,[5],0.377 µg/mL
same,IC80,[5],2.03 µg/mL
same,MPI,[5],99
same,IC50,[6],0.206 µg/mL
same,IC80,[6],0.893 µg/mL
same,MPI,[6],100
same,IC50,[7],0.309 µg/mL
same,IC80,[7],5.11 µg/mL
same,MPI,[7],94
same,IC50,[8],0.322 µg/mL
same,IC80,[8],1.49 µg/mL
same,MPI,[8],100
same,IC50,[9],0.258 µg/mL
same,IC80,[9],0.716 µg/mL
same,MPI,[9],100
same,IC50,[10],0.347 µg/mL
same,IC80,[10],1.11 µg/mL
same,MPI,[10],100
same,IC50,[11],0.768 µg/mL
same,IC80,[11],2.32 µg/mL
same,MPI,[11],100
same,IC50,[12],0.233 µg/mL
same,IC80,[12],1.11 µg/mL
same,MPI,[12],100
same,IC50,[13],0.095 µg/mL
same,IC80,[13],0.641 µg/mL
same,MPI,[13],100
same,IC50,[14],0.363 µg/mL
same,IC80,[14],1.22 µg/mL
same,MPI,[14],100
N49P18.1 (antibody),IC50,[1],15.3 µg/mL
same,IC80,[1],41.9 µg/mL
same,MPI,[1],85
same,IC50,[2],3.25 µg/mL
same,IC80,[2],11.3 µg/mL
same,MPI,[2],99
same,IC50,[3],16.2 µg/mL
same,IC80,[3],44.7 µg/mL
same,MPI,[3],83
same,IC50,[4],> 50 µg/mL
same,IC80,[4],> 50 µg/mL
same,MPI,[4],0
same,IC50,[5],9.08 µg/mL
same,IC80,[5],34.9 µg/mL
same,MPI,[5],88
same,IC50,[6],19.5 µg/mL
same,IC80,[6],> 50 µg/mL
same,MPI,[6],72
same,IC50,[7],3.05 µg/mL
same,IC80,[7],12.2 µg/mL
same,MPI,[7],96
same,IC50,[8],34 µg/mL
same,IC80,[8],> 50 µg/mL
same,MPI,[8],64
same,IC50,[9],19.3 µg/mL
same,IC80,[9],45.4 µg/mL
same,MPI,[9],83
same,IC50,[10],22.7 µg/mL
same,IC80,[10],> 50 µg/mL
same,MPI,[10],71
same,IC50,[11],41.3 µg/mL
same,IC80,[11],> 50 µg/mL
same,MPI,[11],54
same,IC50,[12],29.9 µg/mL
same,IC80,[12],> 50 µg/mL
same,MPI,[12],67
same,IC50,[13],3.96 µg/mL
same,IC80,[13],41 µg/mL
same,MPI,[13],90
same,IC50,[14],18.3 µg/mL
same,IC80,[14],> 50 µg/mL
same,MPI,[14],73
